Source: paper PMC7357845

Target: rabbit skeletal muscle G-actin (rabbit) (UniProt P68135)
Experiment: SPR

Kd [µM] | Substance
0.002 | His-tagged ZASP-S WT (N21 His-tag) (from UniProt O75112-6 1-283) (natural protein)
0.062 | untagged ZASP-S WT (from UniProt O75112-6 1-283) (natural protein)
